Reference: patent US20240270821A1, “GIP/GLP1/GCG TRI-RECEPTOR AGONISTS AND USES THEREOF” (priority 2023, published 2024)

Key:
Experiment in all cases: cell-based or functional assay
[1] = target: hGLP-1R (Homo sapiens, UniProt P43220)
[2] = target: human glucagon receptor (human) (UniProt P47871)
[3] = target: T1, human GIP receptor (human) (UniProt P48546)
T1 sequence (looked up): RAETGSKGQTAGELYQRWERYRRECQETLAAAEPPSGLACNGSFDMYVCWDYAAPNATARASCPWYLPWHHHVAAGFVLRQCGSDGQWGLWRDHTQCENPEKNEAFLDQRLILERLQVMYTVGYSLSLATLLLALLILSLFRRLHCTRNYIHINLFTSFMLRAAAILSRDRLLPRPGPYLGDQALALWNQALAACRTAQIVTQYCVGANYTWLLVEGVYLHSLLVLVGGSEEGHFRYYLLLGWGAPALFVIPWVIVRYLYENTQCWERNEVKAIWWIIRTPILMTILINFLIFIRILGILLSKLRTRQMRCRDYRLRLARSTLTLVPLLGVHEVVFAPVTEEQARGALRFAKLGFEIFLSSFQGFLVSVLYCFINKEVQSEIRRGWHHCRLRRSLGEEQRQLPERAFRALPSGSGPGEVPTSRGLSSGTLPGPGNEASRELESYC

Chain of human glucagon receptor (human) (P47871 26-477): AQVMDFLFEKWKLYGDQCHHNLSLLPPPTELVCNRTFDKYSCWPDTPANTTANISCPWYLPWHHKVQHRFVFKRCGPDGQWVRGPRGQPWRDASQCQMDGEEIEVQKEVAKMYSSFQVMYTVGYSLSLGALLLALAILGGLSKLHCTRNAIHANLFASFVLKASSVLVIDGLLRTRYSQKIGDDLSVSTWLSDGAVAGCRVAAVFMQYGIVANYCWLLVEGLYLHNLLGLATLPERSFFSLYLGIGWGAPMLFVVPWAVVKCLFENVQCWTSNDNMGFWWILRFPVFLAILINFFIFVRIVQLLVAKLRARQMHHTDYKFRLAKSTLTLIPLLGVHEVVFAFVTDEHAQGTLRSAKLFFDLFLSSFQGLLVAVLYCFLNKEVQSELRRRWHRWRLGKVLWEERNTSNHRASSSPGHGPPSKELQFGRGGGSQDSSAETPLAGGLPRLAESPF
Chain of hGLP-1R (P43220 24-463): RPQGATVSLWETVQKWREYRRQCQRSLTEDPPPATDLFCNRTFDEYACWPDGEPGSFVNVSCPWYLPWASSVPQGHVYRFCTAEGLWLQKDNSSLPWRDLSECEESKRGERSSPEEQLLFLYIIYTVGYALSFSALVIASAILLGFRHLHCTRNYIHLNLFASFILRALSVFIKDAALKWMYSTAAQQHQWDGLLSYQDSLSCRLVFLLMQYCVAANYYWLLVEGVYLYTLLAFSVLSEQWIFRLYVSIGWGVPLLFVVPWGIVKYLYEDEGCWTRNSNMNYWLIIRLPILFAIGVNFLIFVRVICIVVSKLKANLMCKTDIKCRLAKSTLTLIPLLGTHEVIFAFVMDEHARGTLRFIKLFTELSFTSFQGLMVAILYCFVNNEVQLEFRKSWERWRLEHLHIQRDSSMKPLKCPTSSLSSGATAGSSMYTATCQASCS

Binder	Relative cAMP EC50 [1]	cAMP Rel EC50, nM (in the presence of 1% HSA) [1]	Relative cAMP EC50 [2]	cAMP Rel EC50, nM (in the presence of 1% HSA) [2]	Relative cAMP EC50 [3]	cAMP Rel EC50, nM (in the presence of 1% HSA) [3]	cAMP Rel EC50 (1% HSA) [1]	cAMP Rel EC50 (1% HSA) [2]	cAMP Rel EC50 (1% HSA) [3]	cAMP Rel EC50 (in the presence of 1% HSA) [1]	cAMP Rel EC50 (in the presence of 1% HSA) [2]	cAMP Rel EC50 (in the presence of 1% HSA) [3]
YXQGTFTSDFSXXLDKKAQXAFIEYLLAGGTSSGEPPPSGE (synthetic construct; SITE 2: note = 2-Aminoisobutyric Acid; SITE 12: note = L-ornithine; SITE 13: note = alpha-methyl-leucine; SITE 17: note = Lysine is chemically modified through conjugation of the epsilon-amino group of the Lysine side chain with (2-[2-(2-Amino-ethoxy)-ethoxy]-acetyl)-(gamma-Glu)) [Example 106]	3.94 nM	977 nM	6.26 nM	2000 nM	0.345 nM	91 nM						
YXQGTFTSDXXQXLDXKAQXQFIQXLIAGGPSSGEPPPSGGGE (not fully specified; non-natural residues; C18 diacid-γGlu-e on Lys; C-terminal amide; synthetic construct; SITE 2: note = 2-Aminoisobutyric Acid; SITE 10: note = 3-(4-Pyridyl)-L-alanine; SITE 11: note = alpha-methyl-L-serine; SITE 13: note = alpha-methyl-leucine; SITE 16: note = L-ornithine; SITE 17: note = Lysine is chemically modified through conjugation of the epsilon-amino group) [Example 1133]	0.768 nM		2.95 nM		0.0719 nM		47.8 nM	216 nM	4.24 nM			
YXQGTFTSDXXQXLDXKAQXQFIQXLIEXGPSSGAPPPSGGGE (not fully specified; synthetic construct; SITE 2: note = 2-Aminoisobutyric Acid; SITE 10: note = 3-(4-Pyridyl)-L-alanine; SITE 11: note = alpha-methyl-L-serine; SITE 13: note = alpha-methyl-leucine; SITE 16: note = L-ornithine; SITE 17: note = Lysine is chemically modified through conjugation of the epsilon-amino group) [Example 1137]	0.582 nM		14.2 nM		0.0334 nM		36.2 nM	663 nM	2.05 nM			
YXQGTXTSDXXIXLDXKAQXEFIEXLIEGGPSSGEPPPTGE (Non-natural residues; K acylated AEEA-γGlu-C18 diacid; C-terminal amide; synthetic construct; SITE 2: note = 2-Aminoisobutyric Acid; SITE 6: note = alpha-methyl-2-fluoro-L-phenylalanine; SITE 10: note = 3-(4-Pyridyl)-L-alanine; SITE 11: note = alpha-methyl-L-serine; SITE 13: note = alpha-methyl-leucine; SITE 16: note = L-ornithine; SITE 17: note = Lysine is chemically mo) [Example 1143]	0.381 nM		1.42 nM		0.0087 nM		49.6 nM	182 nM	0.751 nM			
YXQGTXTSDXXIXLDXKAQXEFIEXLIEGGPSSGEPPPESE (non-natural residues; K acylated AEEA-γGlu-C18 diacid; C-amide; synthetic construct; SITE 2: note = 2-Aminoisobutyric Acid; SITE 6: note = alpha-methyl-2-fluoro-L-phenylalanine; SITE 10: note = 3-(4-Pyridyl)-L-alanine; SITE 11: note = alpha-methyl-L-serine; SITE 13: note = alpha-methyl-leucine; SITE 16: note = L-ornithine; SITE 17: note = Lysine is chemically mo) [Example 1147]	0.347 nM		1.17 nM		0.00753 nM		45.4 nM	167 nM	0.831 nM			
YXQGTXTSDXXIXLDXKAQXEFIEXLVEGGPSSGEPPPTGE (not fully specified; Aib, αMeF(2F), 4Pal, αMeS, αMeL, Orn, Me4Pal, αMeY, acyl, amide; synthetic construct; SITE 2: note = 2-Aminoisobutyric Acid; SITE 6: note = alpha-methyl-2-fluoro-L-phenylalanine; SITE 10: note = 3-(4-Pyridyl)-L-alanine; SITE 11: note = alpha-methyl-L-serine; SITE 13: note = alpha-methyl-leucine; SITE 16: note = L-ornithine; SITE 17: note = Lysine is chemically mo) [Example 1153]	0.33 nM		2.69 nM		0.0109 nM					52.7 nM	215 nM	1.39 nM
YXQGTXTSDXXIXLDXKAQXEFIEXLVEGGPSSGAPPPGGE (not fully specified; non-natural residues; AEEA-γGlu-C18 diacid on Lys; C-terminal amide; synthetic construct; SITE 2: note = 2-Aminoisobutyric Acid; SITE 6: note = alpha-methyl-2-fluoro-L-phenylalanine; SITE 10: note = 3-(4-Pyridyl)-L-alanine; SITE 11: note = alpha-methyl-L-serine; SITE 13: note = alpha-methyl-leucine; SITE 16: note = L-ornithine; SITE 17: note = Lysine is chemically mo) [Example 1154]	0.344 nM		6.42 nM		0.00879 nM					44.5 nM	320 nM	0.954 nM
YXQGTXTSDXXIXLDXKAQXEFIEXLVEGGPSSGAPPPTGE (not fully specified; non-natural residues; lipidated Lys; C-terminal amide; synthetic construct; SITE 2: note = 2-Aminoisobutyric Acid; SITE 6: note = alpha-methyl-2-fluoro-L-phenylalanine; SITE 10: note = 3-(4-Pyridyl)-L-alanine; SITE 11: note = alpha-methyl-L-serine; SITE 13: note = alpha-methyl-leucine; SITE 16: note = L-ornithine; SITE 17: note = Lysine is chemically mo) [Example 1152]	0.371 nM		2.32 nM		0.0101 nM					43.8 nM	287 nM	1.21 nM
YXQGTXTSDXXIXLDXKAQXEFIEXLIEGGPSSGEPPPEGE (non-natural residues; AEEA-γGlu-C18 diacid on Lys; C-terminal amide; synthetic construct; SITE 2: note = 2-Aminoisobutyric Acid; SITE 6: note = alpha-methyl-2-fluoro-L-phenylalanine; SITE 10: note = 3-(4-Pyridyl)-L-alanine; SITE 11: note = alpha-methyl-L-serine; SITE 13: note = alpha-methyl-leucine; SITE 16: note = L-ornithine; SITE 17: note = Lysine is chemically mo) [Example 1149]	0.352 nM		1.37 nM		0.00804 nM		52.2 nM	184 nM	0.96 nM			
YXQGTXTSDXXIXLDXKAQXEFIEXLVEGGPSSGEPPPGGE (not fully specified; Aib, αMeF(2F), 4Pal, Me4Pal, Orn; lipidated Lys; C-terminal amide; synthetic construct; SITE 2: note = 2-Aminoisobutyric Acid; SITE 6: note = alpha-methyl-2-fluoro-L-phenylalanine …; SITE 10: note = 3-(4-Pyridyl)-L-alanine; SITE 11: note = alpha-methyl-L-serine; SITE 13: note = alpha-methyl-leucine; SITE 16: note = L-ornithine; SITE 17: note = Lysine is chemically mo) [Example 1155]	0.434 nM		1.83 nM		0.00917 nM					44.4 nM	288 nM	0.888 nM
YXQGTXTSDXXIXLDXKAQXEFIEXLIEGGPSSGEPPPGGE (non-natural residues; lipidated Lys AEEA-γGlu-C18 diacid; C-term amide; synthetic construct; SITE 2: note = 2-Aminoisobutyric Acid; SITE 6: note = alpha-methyl-2-fluoro-L-phenylalanine; SITE 10: note = 3-(4-Pyridyl)-L-alanine; SITE 11: note = alpha-methyl-L-serine; SITE 13: note = alpha-methyl-leucine; SITE 16: note = L-ornithine; SITE 17: note = Lysine is chemically mo) [Example 1145]	0.313 nM		1.07 nM		0.00689 nM		39.1 nM	148 nM	0.848 nM			
YXQGTXTSDXXIXLDXKAQXEFIEXLIEGGPSSGEPPPSGE (not fully specified; non-natural residues; acylated Lys; C-terminal amide; synthetic construct; SITE 2: note = 2-Aminoisobutyric Acid; SITE 6: note = alpha-methyl-2-fluoro-L-phenylalanine; SITE 10: note = 3-(4-Pyridyl)-L-alanine; SITE 11: note = alpha-methyl-L-serine; SITE 13: note = alpha-methyl-leucine; SITE 16: note = L-ornithine; SITE 17: note = Lysine is chemically mo) [Example 1151]	0.262 nM		1.31 nM		0.00339 nM		40 nM	206 nM	0.287 nM			
YXQGTFTSDXSQXLDXKAQXAFIEXLIAXGPSSGEPPPSGSEE (Non-natural residues; K acylated AEEA-γGlu-C18 diacid; C-terminal amide; synthetic construct; SITE 2: note = 2-Aminoisobutyric Acid; SITE 10: note = 3-(4-Pyridyl)-L-alanine; SITE 13: note = alpha-methyl-leucine; SITE 16: note = L-ornithine; SITE 17: note = Lysine is chemically modified through conjugation of the epsilon-amino group of the Lysine side chain with (2-[2-(2-) [Example 1099]	0.73 nM		3.47 nM		0.076 nM		75.8 nM	472 nM	8.64 nM			
